Numbered stars: 1 amine (or outer) side, 2 acyl side, 3 side chain; on linkers, the order of the positions; unused ones are H or OH. Bridge positions count the residues as written; N and C are the ends. Side chains are listed from the residue outwards. Ends that are not written are not given here. * marks the point of attachment. C20 diacid = O=C(O)CCCCCCCCCCCCCCCCCCC(=O)*; γGlu = O=C(O)[C@H](CCC(=O)[*:2])N[*:1]

Assay [1] has as its target T1, human calcitonin receptor (human, UniProt P30988 25-474).
T1 construct: whole, on cells; Assayed as cell membranes of BHK tk'ts 13 cells stably transfected with the human calcitonin receptor (Assay VII); also called hCTR; hCT
T1 sequence (looked up): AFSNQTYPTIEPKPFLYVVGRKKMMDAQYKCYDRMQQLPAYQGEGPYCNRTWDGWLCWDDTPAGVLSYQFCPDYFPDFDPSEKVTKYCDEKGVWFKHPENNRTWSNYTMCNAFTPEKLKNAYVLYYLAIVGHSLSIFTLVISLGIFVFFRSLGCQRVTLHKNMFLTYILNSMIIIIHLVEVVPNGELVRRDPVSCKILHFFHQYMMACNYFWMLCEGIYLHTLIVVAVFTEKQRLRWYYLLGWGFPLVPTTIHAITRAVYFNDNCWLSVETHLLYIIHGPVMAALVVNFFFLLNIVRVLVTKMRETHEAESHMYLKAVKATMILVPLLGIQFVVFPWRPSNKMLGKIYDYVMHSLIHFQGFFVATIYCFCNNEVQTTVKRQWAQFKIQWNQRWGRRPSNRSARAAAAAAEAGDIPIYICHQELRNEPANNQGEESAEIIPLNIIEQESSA
As to the kind of experiment: SPA competition vs 125I-calcitonin, membranes of BHK cells with human calcitonin receptor (Assay VII). An outline of the steps: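 BHK hCTR membranes 35 ng/μL + SPA beads 0.05 mg/well; buffer 50 mM Hepes pH 7.4, 1 mM CaCl2, 5 mM MgCl₂, 0.1% OA, 0.02% Tween20. 120 min, 25° C., shaking. Scintillation count; IC50 by one-site binding competition.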

Assay [2] addresses T1, human calcitonin receptor. As to the kind of experiment: IC50 at hCTR divided by IC50 at hAmylin-R (SPA competition assays V and VII). An outline of the steps: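 Membranes (35 ng/μL final) + SPA beads, 50 mM Hepes pH 7.4 buffer with 1 mM CaCl2, 5 mM MgCl₂, 0.1% OA, 0.02% Tween20; 120 min, 25° C, shaking; centrifuged, counted; IC₅₀ by one-site binding competition.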

B1: N^ε1-[(4S)-4-carboxy-4-(19-carboxynonadecanoylamino)butanoyl]-[Arg17,Pro21,Pro27,Arg34]-h-amylin (peptide)
peptide: K([γGlu-C20 diacid])CNTATCATQRLANFLRHSSPNFGAIPSSTNVGRNTY-NH2
modifications: disulfide 2-7; N-terminus assumed
SMILES: CC[C@H](C)[C@H](NC(=O)[C@H](C)NC(=O)CNC(=O)[C@H](Cc1ccccc1)NC(=O)[C@H](CC(N)=O)NC(=O)[C@@H]1CCCN1C(=O)[C@H](CO)NC(=O)[C@H](CO)NC(=O)[C@H](Cc1c[nH]cn1)NC(=O)[C@H](CCCNC(=N)N)NC(=O)[C@H](CC(C)C)NC(=O)[C@H](Cc1ccccc1)NC(=O)[C@H](CC(N)=O)NC(=O)[C@H](C)NC(=O)[C@H](CC(C)C)NC(=O)[C@H](CCCNC(=N)N)NC(=O)[C@H](CCC(N)=O)NC(=O)[C@@H](NC(=O)[C@H](C)NC(=O)[C@@H]1CSSC[C@H](NC(=O)[C@@H](N)CCCCNC(=O)CC[C@H](NC(=O)CCCCCCCCCCCCCCCCCCC(=O)O)C(=O)O)C(=O)N[C@@H](CC(N)=O)C(=O)N[C@@H]([C@@H](C)O)C(=O)N[C@@H](C)C(=O)N[C@@H]([C@@H](C)O)C(=O)N1)[C@@H](C)O)C(=O)N1CCC[C@H]1C(=O)N[C@@H](CO)C(=O)N[C@@H](CO)C(=O)N[C@H](C(=O)N[C@@H](CC(N)=O)C(=O)N[C@H](C(=O)NCC(=O)N[C@@H](CCCNC(=N)N)C(=O)N[C@@H](CC(N)=O)C(=O)N[C@H](C(=O)N[C@@H](Cc1ccc(O)cc1)C(N)=O)[C@@H](C)O)C(C)C)[C@@H](C)O
notes: also called compound 79
As for B1, the IC50 in assay [1] came out at 36.4 nM. Also, the “Ratio hCT/hAmylin binding” value in assay [2] amounted to 46.1.

B2: N^ε1-[(4S)-4-carboxy-4-(19-carboxynonadecanoylamino)butanoyl]-[Arg17,Pro21,Pro27,His34]-h-amylin (peptide)
peptide: K([γGlu-C20 diacid])CNTATCATQRLANFLRHSSPNFGAIPSSTNVGHNTY-NH2
modifications: disulfide 2-7; N-terminus assumed
SMILES: CC[C@H](C)[C@H](NC(=O)[C@H](C)NC(=O)CNC(=O)[C@H](Cc1ccccc1)NC(=O)[C@H](CC(N)=O)NC(=O)[C@@H]1CCCN1C(=O)[C@H](CO)NC(=O)[C@H](CO)NC(=O)[C@H](Cc1c[nH]cn1)NC(=O)[C@H](CCCNC(=N)N)NC(=O)[C@H](CC(C)C)NC(=O)[C@H](Cc1ccccc1)NC(=O)[C@H](CC(N)=O)NC(=O)[C@H](C)NC(=O)[C@H](CC(C)C)NC(=O)[C@H](CCCNC(=N)N)NC(=O)[C@H](CCC(N)=O)NC(=O)[C@@H](NC(=O)[C@H](C)NC(=O)[C@@H]1CSSC[C@H](NC(=O)[C@@H](N)CCCCNC(=O)CC[C@H](NC(=O)CCCCCCCCCCCCCCCCCCC(=O)O)C(=O)O)C(=O)N[C@@H](CC(N)=O)C(=O)N[C@@H]([C@@H](C)O)C(=O)N[C@@H](C)C(=O)N[C@@H]([C@@H](C)O)C(=O)N1)[C@@H](C)O)C(=O)N1CCC[C@H]1C(=O)N[C@@H](CO)C(=O)N[C@@H](CO)C(=O)N[C@H](C(=O)N[C@@H](CC(N)=O)C(=O)N[C@H](C(=O)NCC(=O)N[C@@H](Cc1c[nH]cn1)C(=O)N[C@@H](CC(N)=O)C(=O)N[C@H](C(=O)N[C@@H](Cc1ccc(O)cc1)C(N)=O)[C@@H](C)O)C(C)C)[C@@H](C)O
notes: also called compound 77
B2: the IC50 in assay [1] turned out to be 50.7 nM. The “Ratio hCT/hAmylin binding” value in assay [2] turned out to be 118.

B3: N^ε1-[(4S)-4-carboxy-4-(19-carboxynonadecanoylamino)butanoyl]-[Arg17,Pro21,Pro27,His35]-h-amylin (peptide)
peptide: K([γGlu-C20 diacid])CNTATCATQRLANFLRHSSPNFGAIPSSTNVGSHTY-NH2
modifications: disulfide 2-7; N-terminus assumed
SMILES: CC[C@H](C)[C@H](NC(=O)[C@H](C)NC(=O)CNC(=O)[C@H](Cc1ccccc1)NC(=O)[C@H](CC(N)=O)NC(=O)[C@@H]1CCCN1C(=O)[C@H](CO)NC(=O)[C@H](CO)NC(=O)[C@H](Cc1c[nH]cn1)NC(=O)[C@H](CCCNC(=N)N)NC(=O)[C@H](CC(C)C)NC(=O)[C@H](Cc1ccccc1)NC(=O)[C@H](CC(N)=O)NC(=O)[C@H](C)NC(=O)[C@H](CC(C)C)NC(=O)[C@H](CCCNC(=N)N)NC(=O)[C@H](CCC(N)=O)NC(=O)[C@@H](NC(=O)[C@H](C)NC(=O)[C@@H]1CSSC[C@H](NC(=O)[C@@H](N)CCCCNC(=O)CC[C@H](NC(=O)CCCCCCCCCCCCCCCCCCC(=O)O)C(=O)O)C(=O)N[C@@H](CC(N)=O)C(=O)N[C@@H]([C@@H](C)O)C(=O)N[C@@H](C)C(=O)N[C@@H]([C@@H](C)O)C(=O)N1)[C@@H](C)O)C(=O)N1CCC[C@H]1C(=O)N[C@@H](CO)C(=O)N[C@@H](CO)C(=O)N[C@H](C(=O)N[C@@H](CC(N)=O)C(=O)N[C@H](C(=O)NCC(=O)N[C@@H](CO)C(=O)N[C@@H](Cc1c[nH]cn1)C(=O)N[C@H](C(=O)N[C@@H](Cc1ccc(O)cc1)C(N)=O)[C@@H](C)O)C(C)C)[C@@H](C)O
notes: also called compound 60
Consider B3, for which the IC50 in assay [1] was 31.4 nM. For the same molecule, the “Ratio hCT/hAmylin binding” value in assay [2] amounted to 45.2.

B4: N^ε1-[(4S)-4-carboxy-4-(19-carboxynonadecanoylamino)butanoyl]-[His14,Arg17,Pro21,Pro27,Arg34]-h-amylin (peptide)
peptide: K([γGlu-C20 diacid])CNTATCATQRLAHFLRHSSPNFGAIPSSTNVGRNTY-NH2
modifications: disulfide 2-7; N-terminus assumed
SMILES: CC[C@H](C)[C@H](NC(=O)[C@H](C)NC(=O)CNC(=O)[C@H](Cc1ccccc1)NC(=O)[C@H](CC(N)=O)NC(=O)[C@@H]1CCCN1C(=O)[C@H](CO)NC(=O)[C@H](CO)NC(=O)[C@H](Cc1c[nH]cn1)NC(=O)[C@H](CCCNC(=N)N)NC(=O)[C@H](CC(C)C)NC(=O)[C@H](Cc1ccccc1)NC(=O)[C@H](Cc1c[nH]cn1)NC(=O)[C@H](C)NC(=O)[C@H](CC(C)C)NC(=O)[C@H](CCCNC(=N)N)NC(=O)[C@H](CCC(N)=O)NC(=O)[C@@H](NC(=O)[C@H](C)NC(=O)[C@@H]1CSSC[C@H](NC(=O)[C@@H](N)CCCCNC(=O)CC[C@H](NC(=O)CCCCCCCCCCCCCCCCCCC(=O)O)C(=O)O)C(=O)N[C@@H](CC(N)=O)C(=O)N[C@@H]([C@@H](C)O)C(=O)N[C@@H](C)C(=O)N[C@@H]([C@@H](C)O)C(=O)N1)[C@@H](C)O)C(=O)N1CCC[C@H]1C(=O)N[C@@H](CO)C(=O)N[C@@H](CO)C(=O)N[C@H](C(=O)N[C@@H](CC(N)=O)C(=O)N[C@H](C(=O)NCC(=O)N[C@@H](CCCNC(=N)N)C(=O)N[C@@H](CC(N)=O)C(=O)N[C@H](C(=O)N[C@@H](Cc1ccc(O)cc1)C(N)=O)[C@@H](C)O)C(C)C)[C@@H](C)O
notes: also called compound 85
Take B4: the IC50 in assay [1] is 80.4 nM. Further, the “Ratio hCT/hAmylin binding” value in assay [2] was 91.8.

B5: N^ε1-[(4S)-4-carboxy-4-(19-carboxynonadecanoylamino)butanoyl]-[Glu14,Arg17,Pro21,Pro27,Arg35]-h-amylin (peptide)
peptide: K([γGlu-C20 diacid])CNTATCATQRLAEFLRHSSPNFGAIPSSTNVGSRTY-NH2
modifications: disulfide 2-7; N-terminus assumed
SMILES: CC[C@H](C)[C@H](NC(=O)[C@H](C)NC(=O)CNC(=O)[C@H](Cc1ccccc1)NC(=O)[C@H](CC(N)=O)NC(=O)[C@@H]1CCCN1C(=O)[C@H](CO)NC(=O)[C@H](CO)NC(=O)[C@H](Cc1c[nH]cn1)NC(=O)[C@H](CCCNC(=N)N)NC(=O)[C@H](CC(C)C)NC(=O)[C@H](Cc1ccccc1)NC(=O)[C@H](CCC(=O)O)NC(=O)[C@H](C)NC(=O)[C@H](CC(C)C)NC(=O)[C@H](CCCNC(=N)N)NC(=O)[C@H](CCC(N)=O)NC(=O)[C@@H](NC(=O)[C@H](C)NC(=O)[C@@H]1CSSC[C@H](NC(=O)[C@@H](N)CCCCNC(=O)CC[C@H](NC(=O)CCCCCCCCCCCCCCCCCCC(=O)O)C(=O)O)C(=O)N[C@@H](CC(N)=O)C(=O)N[C@@H]([C@@H](C)O)C(=O)N[C@@H](C)C(=O)N[C@@H]([C@@H](C)O)C(=O)N1)[C@@H](C)O)C(=O)N1CCC[C@H]1C(=O)N[C@@H](CO)C(=O)N[C@@H](CO)C(=O)N[C@H](C(=O)N[C@@H](CC(N)=O)C(=O)N[C@H](C(=O)NCC(=O)N[C@@H](CO)C(=O)N[C@@H](CCCNC(=N)N)C(=O)N[C@H](C(=O)N[C@@H](Cc1ccc(O)cc1)C(N)=O)[C@@H](C)O)C(C)C)[C@@H](C)O
notes: also called compound 51
Take B5: the IC50 in assay [1] was found to be 31.1 nM. For the same molecule, the “Ratio hCT/hAmylin binding” value in assay [2] came to 37.5.

B6: N^ε1-[(4S)-4-carboxy-4-(19-carboxynonadecanoylamino)butanoyl]-[His14,Arg17,Pro21,Pro27,His34]-h-amylin (peptide)
peptide: K([γGlu-C20 diacid])CNTATCATQRLAHFLRHSSPNFGAIPSSTNVGHNTY-NH2
modifications: disulfide 2-7; N-terminus assumed
SMILES: CC[C@H](C)[C@H](NC(=O)[C@H](C)NC(=O)CNC(=O)[C@H](Cc1ccccc1)NC(=O)[C@H](CC(N)=O)NC(=O)[C@@H]1CCCN1C(=O)[C@H](CO)NC(=O)[C@H](CO)NC(=O)[C@H](Cc1c[nH]cn1)NC(=O)[C@H](CCCNC(=N)N)NC(=O)[C@H](CC(C)C)NC(=O)[C@H](Cc1ccccc1)NC(=O)[C@H](Cc1c[nH]cn1)NC(=O)[C@H](C)NC(=O)[C@H](CC(C)C)NC(=O)[C@H](CCCNC(=N)N)NC(=O)[C@H](CCC(N)=O)NC(=O)[C@@H](NC(=O)[C@H](C)NC(=O)[C@@H]1CSSC[C@H](NC(=O)[C@@H](N)CCCCNC(=O)CC[C@H](NC(=O)CCCCCCCCCCCCCCCCCCC(=O)O)C(=O)O)C(=O)N[C@@H](CC(N)=O)C(=O)N[C@@H]([C@@H](C)O)C(=O)N[C@@H](C)C(=O)N[C@@H]([C@@H](C)O)C(=O)N1)[C@@H](C)O)C(=O)N1CCC[C@H]1C(=O)N[C@@H](CO)C(=O)N[C@@H](CO)C(=O)N[C@H](C(=O)N[C@@H](CC(N)=O)C(=O)N[C@H](C(=O)NCC(=O)N[C@@H](Cc1c[nH]cn1)C(=O)N[C@@H](CC(N)=O)C(=O)N[C@H](C(=O)N[C@@H](Cc1ccc(O)cc1)C(N)=O)[C@@H](C)O)C(C)C)[C@@H](C)O
notes: also called compound 81
B6: in assay [1], the IC50 came out at 23.6 nM. For the same molecule, in assay [2], the “Ratio hCT/hAmylin binding” value is 87.2.

A word on the IC50: it is the concentration needed to halve the response being measured.

Values taken from patent US20140087995A1 (published 2014).
